Target: Full-length recombinant human TSG-6 (secreted product of tumor necrosis factor-stimulated gene-6) (human) (UniProt P98066)
Assay: not stated; preliminary results, data not shown

Sequence of UniProt P98066 (P98066 18-277): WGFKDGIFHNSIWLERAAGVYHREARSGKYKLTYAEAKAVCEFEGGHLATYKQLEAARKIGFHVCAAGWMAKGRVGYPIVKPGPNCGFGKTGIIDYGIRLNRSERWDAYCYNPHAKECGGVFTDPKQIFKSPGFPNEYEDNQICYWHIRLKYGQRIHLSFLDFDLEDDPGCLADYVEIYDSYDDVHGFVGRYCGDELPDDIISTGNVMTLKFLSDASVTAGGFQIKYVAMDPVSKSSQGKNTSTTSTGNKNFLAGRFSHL

“Inter-α-inhibitor (from UniProt P19827 35-672; P19823 55-702) (complex)” gave a Kd of 10 nM.

From paper PMC3795262
